Here are results for two proteins from publication PMC11502334, “Fungal glyceraldehyde 3-phosphate dehydrogenase GpdC maintains glycolytic mechanism against reactive nitrogen stress-induced damage” (Frontiers in Microbiology, 2024).

Holding throughout (assay): purified protein
Type in all cases: biochemical, Aspergillus nidulans

Substrate in data set [1]: NC(=O)c1ccc[n+]([C@@H]2O[C@H](COP(=O)(O)OP(=O)(O)OC[C@H]3O[C@@H](n4cnc5c(N)ncnc54)[C@H](O)[C@@H]3O)[C@@H](O)[C@H]2O)c1
The settings on record: GAP as co-substrate, 30 mM sodium pyrophosphate, 10 mM potassium phosphate, pH 8.4, 25°C, varied: cofactor.

Substrate in data set [2]: O=C[C@H](O)COP(=O)(O)O
The settings on record: 30 mM sodium pyrophosphate, 10 mM potassium phosphate, pH 8.4, 25°C.

Substrate in data set [3]: NC(=O)c1ccc[n+]([C@@H]2O[C@H](COP(=O)(O)OP(=O)(O)OC[C@H]3O[C@@H](n4cnc5c(N)ncnc54)[C@H](OP(=O)(O)O)[C@@H]3O)[C@@H](O)[C@H]2O)c1
The settings on record: GAP as co-substrate, 30 mM sodium pyrophosphate, 10 mM potassium phosphate, pH 8.4, 25°C, varied: cofactor.

The mark [4] stands for this setting: co-substrate (NAD+ or NADP+) not given.

B1: rGpdA (GpdA) (Aspergillus nidulans FGSC A4) (protein)
chain: MAPKVGINGFGRIGRIVFRNAIEAGTVDVVAVNDPFIETHYAAYMLKYDSQHGQFKGTIETYDEGLIVNGKKIRFHTERDPANIPWGQDGAEYIVESTGVFTTQEKASAHLKGGAKKVVISAPSADAPMFVMGVNNETYKKDIQVLSNASCTTNCLAPLAKVINDNFGIIEGLMTTVHSYTATQKVVDGPSAKDWRGGRTAATNIIPSSTGAAKAVGKVIPSLNGKLTGMAMRVPTSNVSVVDLTVRTEKAVTYDQIKDAVKKASENELKGILGYTEDDIVSTDLNGDTRSSIFDAKAGIALNSNFIKLVSWYDNEWGYSRRVVDLITYISKVDAQ
notes: recombinant from cDNA, vector pET-21a, expressed in E. coli BL21 (DE3), HisTrap purified
By Km is commonly meant the substrate concentration at which the rate is half of its maximum. Usually kcat stands for the number of substrate molecules converted per active site and unit of time at saturation. As usually defined, the kcat/Km is the second-order rate constant that governs catalysis at low substrate concentration. In the case of B1, in “purified protein [1]”, the Km was 180 ± 30 µM, the catalytic constant (kcat) turned out to be 85 ± 3.33 s⁻¹ and the kcat/Km came out at 467000 ± 117000 M⁻¹ s⁻¹. For the same protein, in the data set “purified protein [2]” (NAD+ as co-substrate), the Km is 410 ± 90 µM, the kcat is 55 ± 3.33 s⁻¹ and the specificity constant (kcat/Km) is 132000 ± 40000 M⁻¹ s⁻¹.

B2: rGpdC (GpdC) (Aspergillus nidulans FGSC A4) (protein)
chain: MAPSINEIPISDSPSACRVGINGFGRIGRNVLRVALARNDIQIVAINHTCTSVQDLIYLIRYDSSMGKLSPDIPIHAISETQISVNGRPIALTSERDLKKLNWAALGAEYVVECTGKFTKRELAQDHITYGGAKRVVISAPSSDSPTYVYGVNADEYRANEETRVISCASCTTNCVTPVLKVLQREFGIAQGFLTTVHAATKSQTVLDGYSKKNRRLGRSVFDNIIPTTTGAAKAIASVLPELTGKVTGASIRVPTPNVSLIDLTVSTETPTSLAEILAAFRRAAKNELAGVLSVSDEVLVSSDYLGDSHSAIVDAAACSELNPTFFKIMAWYDNEWGYSSRLLDLTRHIAHNE
notes: recombinant from synthetic E. coli codon-optimized gene, vector pET-21a (Nde I/Hind III), expressed in E. coli BL21 (DE3), HisTrap purified
As for B2, in the data set “purified protein [1]”, the Km worked out at 420 ± 20 µM, the kcat stood at 4 ± 0.333 s⁻¹ and the catalytic efficiency (kcat/Km) stood at 9330 ± 333 M⁻¹ s⁻¹. Also, in “purified protein [3]”, the Km came out at 47 ± 2 µM, the catalytic constant (kcat) was found to be 8.83 ± 0.5 s⁻¹ and the kcat/Km is 183000 ± 16700 M⁻¹ s⁻¹. Also, in the data set “purified protein [2]” (setting [4]), the Km was 290 ± 20 µM, the kcat is 2.67 ± 0.333 s⁻¹ and the kcat/Km amounted to 9170 ± 333 M⁻¹ s⁻¹.
